From patent publication US20200031912A1 (published 2020)
Positions count from the first letter of the chain named.

B1: template (Macaque) CH2 domain molecule of SEQ ID NO: 2 (other)
chain: GPSVFLFPPKPKDTLMISRTPEVTCVVVDVSQEDPDVKFNWYVNGAEVHHAQTKPRETQYNSTYRVVSVLTVTHQDWLNGKEYTCKVSNKALPAPIQKTISKDK
B2: ABD02 (SEQ ID NO: 4) (designed binder)
chain: GPSVFLFPPKPKDTLMISRTPEVTCVFVDYRADYLEVKFNWYVDGAEVHNAKTKPRQYDPLYGYRVVSVLTVLHQDWLNGKEYTCKVSNKALPAPIEKTISKDK
B3: ABD04 (SEQ ID NO: 6) (designed binder)
chain: B2 chain with L15M, N50H, L73S
B4: ABD03 (SEQ ID NO: 5) (designed binder)
chain: B2 chain with N50H, L73S, E97Q
B5: ABD05 (SEQ ID NO: 7) (designed binder)
chain: B2 chain with N50H, L73S
B6: B11, a template CH2 domain molecule (SEQ ID NO: 12) (designed binder)
chain: B2 chain with F27V, A46V, T84K, D103A
B7: ABD01 (SEQ ID NO: 3) (designed binder)
chain: B2 chain with A46V

target: human recombinant FcRn protein (human, UniProt P55899 24-297); assay: Biacore
Sequence (P55899 24-297): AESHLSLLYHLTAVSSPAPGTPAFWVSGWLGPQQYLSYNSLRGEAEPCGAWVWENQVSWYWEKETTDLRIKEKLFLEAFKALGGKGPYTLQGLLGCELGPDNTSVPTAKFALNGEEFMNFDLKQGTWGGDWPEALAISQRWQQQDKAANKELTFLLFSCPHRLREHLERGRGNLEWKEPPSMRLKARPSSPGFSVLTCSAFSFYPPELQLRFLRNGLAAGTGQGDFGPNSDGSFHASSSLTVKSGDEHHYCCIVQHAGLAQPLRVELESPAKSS

Kd [nM] | Binder
13 | B1
21 | B2
8.9 | B3
11.4 | B4
9.1 | B5
12 | B6
4.18 | B7
